Test system: F1*sub RNA substrate (template-directed ligation)
Experiment: fraction ligated after 30 min (ligated reads / total reads); higher = more ligase activity; sequences stand for … in GAGACCGCAACTGAAAAGTTGT…AGTTCTGCACGTAGAAGCAAAAGGC
Conditions: 42 °C
Procedure, shortened: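 Oligo-pool templates underwent PCR amplification, T7 transcription and gel purification to yield ribozyme variants. Gel-separated ligated and unligated bands were converted to complementary DNA with barcoded primers and sequenced on a MiSeq, keeping core bases of quality ≥20. The ratio of ligated reads to total reads gave the fraction ligated for every variant.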

TATCATTGGTAAGACACTTTGGATGGGTTGA [3d1156]
fraction ligated: 0.809

TTCATTGTCGTAAGACACTTTGGATGGGTTGA [2d27]
fraction ligated: 0.509

TATCACTGTGTAAGACACTTTGGATGGGTTG [3d1357]
fraction ligated: 0.843

TACACTTGTCGTAAGACATTTGGATGGGTTGA [2d61]
fraction ligated: 0.472

TACACTTGTCGAAGACACTTTGGAGGGTTGA [3d655]
fraction ligated: 0.126

TTCACTTGCGTAAGACACTTTGGATGGGTTGA [2d30]
fraction ligated: 0.777

TATCACTTGCGTAAGCACTTTGGTGGGTTGA [3d1654]
fraction ligated: 0.366

TAACTTGTCGTAAGACACTTTGATGGGTTGA [3d522]
fraction ligated: 0.0453

TATCACTTGTCAAACACTTTGGATGGGTTGA [3d1811]
fraction ligated: 0.802

TACACTTGTCGTAAGACACTTTGGATGGGTT [3d736]
fraction ligated: 0.00884

TATACTTGTCGTAAGACATTGGATGGGTTGA [3d918]
fraction ligated: 0.786

TATCACTGTGTAAACACTTTGGATGGGTTGA [3d1346]
fraction ligated: 0.845

TATCACTTGTCGTAGACACTTTGGTGGGTTG [3d2051]
fraction ligated: 0.101

TATCACTTGGTAAGACACTTTGGTGGGTTGA [3d1594]
fraction ligated: 0.047

TATCACTTGTCGTAAGACACTTTGATGGGTT [3d2269]
fraction ligated: 0.017

TATCATGTCGTAAGCACTTTGGATGGGTTGA [3d1129]
fraction ligated: 0.761

TTCCTTGTCTAAGACACTTTGGATGGGTTGA [3d302]
fraction ligated: 0.78

TATCACTTTCGTAGAACTTTGGATGGGTTGA [3d1509]
fraction ligated: 0.875

TATCACTTGTCGTAAGACCTTTATGGGTTGA [3d2190]
fraction ligated: 0.11

TATCACTTTCGTAAGACACTTTGATGGGTTA [3d1572]
fraction ligated: 0.0837

TATCACTTTCTAAGACACTTTGGATGGTTGA [3d1490]
fraction ligated: 0.114

TATCACTTGTCGTAAGACACTTTGGTGGGTTG [2d292]
fraction ligated: 0.0944

TATCATTGTCGTAGACACTTTGGATGGTTGA [3d1224]
fraction ligated: 0.305

TTCATTGTCGTAAGACACTTTGGAGGGTTGA [3d332]
fraction ligated: 0.175

TCATTGTCGTAAGACACTTTGGATGGGTTGA [3d4]
fraction ligated: 0.164

TATCATTGTCTAAGACACTTTGATGGGTTGA [3d1195]
fraction ligated: 0.751

TATCACTTGTCGTAAGAACTTGGTGGGTTGA [3d2161]
fraction ligated: 0.0804

TATACTTGTCGTAAGACCTTTGGATGGGTTGA [2d81]
fraction ligated: 0.746

TTCCTTGTCGTAAGACACTTTGATGGGTTGA [3d311]
fraction ligated: 0.595

TATACTTGTCGTAAGACACTTTGGATGGGTTA [2d88]
fraction ligated: 0.0592

TACACTTGTCGTAAGCACTTTGGAGGGTTGA [3d688]
fraction ligated: 0.0515

ATCACTTGTCGTAAGACACTTTGGAGGTTGA [3d270]
fraction ligated: 0.0103

TATCATTGTCGTAGACACTTTGGATGGGTTGA [2d115]
fraction ligated: 0.798

TATCATTGTCGTAAGAACTTGGATGGGTTGA [3d1248]
fraction ligated: 0.831

TATCACTTTGTAAGACACTTTGGAGGGTTGA [3d1475]
fraction ligated: 0.0352

ATCACTTGTCTAAGCACTTTGGATGGGTTGA [3d174]
fraction ligated: 0.733

ATCCTTGTCGTAAGACACTTTGGATGGGTTGA [2d4]
fraction ligated: 0.744

TATCACTTGCGAAGCACTTTGGATGGGTTGA [3d1615]
fraction ligated: 0.817

TATCACTTGTCTAAGACACTTTGGATGGGTT [3d1900]
fraction ligated: 0.747

ATCACTTGTCGAAGACACTTTGGATGGGTTGA [2d11]
fraction ligated: 0.777

TATCACTTGTGAAACACTTTGGATGGGTTGA [3d1719]
fraction ligated: 0.842

TATCACTTGTCGTAGACACTTTGATGGGTTA [3d2046]
fraction ligated: 0.156

TATCACTGGTAAGACACTTTGGATGGGTTGA [3d1327]
fraction ligated: 0.828

ATCACTTGTCGTAAGAACTTTGATGGGTTGA [3d233]
fraction ligated: 0.533

TATCACTGTGTAAGACACTTGGATGGGTTGA [3d1351]
fraction ligated: 0.821

TATCACTGTCGTAAGAATTTGGATGGGTTGA [3d1418]
fraction ligated: 0.804

TACACTGTCGAAGACACTTTGGATGGGTTGA [3d571]
fraction ligated: 0.346

TACACTTGTCGTAAACACTTTGGTGGGTTGA [3d677]
fraction ligated: 0.0298

ATCCTTGTCGTAAGACACTTGGATGGGTTGA [3d79]
fraction ligated: 0.733

TACATGTCGTAAGACACTTTGGATGGGTTGA [3d547]
fraction ligated: 0.16

TATCACTTGCGTAAGACACTTGGATGGTTGA [3d1685]
fraction ligated: 0.152

TATCACTTTCGTAGCACTTTGGATGGGTTGA [3d1508]
fraction ligated: 0.826

TATACTTGTCGTAAGACACTTTGGGGGTTGA [3d938]
fraction ligated: 0.0526

TATCACTTGTCGTAAGACATTTGGATGGGTT [3d2229]
fraction ligated: 0.73

TATCACTGCGTAGACACTTTGGATGGGTTGA [3d1330]
fraction ligated: 0.862

ATCTTGTCGTAAGACACTTTGGATGGGTTGA [3d46]
fraction ligated: 0.774

TACACTTGTCGAAGCACTTTGGATGGGTTGA [3d648]
fraction ligated: 0.134

TATCACTTGTCAAGACACTTGGATGGGTTGA [3d1816]
fraction ligated: 0.76

TATACTTGTCGTAAAACTTTGGATGGGTTGA [3d883]
fraction ligated: 0.799

TATCATTGTCGAAGCACTTTGGATGGGTTGA [3d1203]
fraction ligated: 0.784

TATCACTTGTCGTAAGCACTTGGAGGGTTGA [3d2131]
fraction ligated: 0.072

TTCACTTGTCTAAGACACTTTGATGGGTTGA [3d410]
fraction ligated: 0.312

TATCACTTGTCGTAGCATTTGGATGGGTTGA [3d2005]
fraction ligated: 0.815

TAACTTGTCTAAGACACTTTGGATGGGTTGA [3d513]
fraction ligated: 0.123

TCACTTGTCGTAAGACACTTTGGATGGGTTG [3d23]
fraction ligated: 0.797

TATCACTTGTGTAAGACACTTTGGTGGTTGA [3d1800]
fraction ligated: 0.0267

TCACTTGTCGTAAGACACTTTGATGGGTTGA [3d18]
fraction ligated: 0.183

TATCACTTGTCGTAAGCATTTGGATGGGTTGA [2d246]
fraction ligated: 0.849

TTCACTTGTCGTAAGACACTTTGATGGTTGA [3d494]
fraction ligated: 0.0545

TATACTGTCGTAAGACACTTTGATGGGTTGA [3d790]
fraction ligated: 0.743

TACACTTGTCTAAGACACTTTGGATGGTTGA [3d643]
fraction ligated: 0.449

TATCACTTGTCGTAAGACACTTTGGATGGTT [3d2281]
fraction ligated: 0.024

TATCACTTGTCGTAGAACTTTGGAGGGTTGA [3d2017]
fraction ligated: 0.119

TATACTTGTCGTAAGACTTTGGATGGGTTGA [3d893]
fraction ligated: 0.758

TATCACTTGTCTAAGCCTTTGGATGGGTTGA [3d1847]
fraction ligated: 0.776

TATCCTTGTCGTAAACACTTTGGATGGGTTA [3d1063]
fraction ligated: 0.416

TACACTTGTCTAAGACCTTTGGATGGGTTGA [3d637]
fraction ligated: 0.0809

ATCACTTGCGTAAGACACTTTGGATGGTTGA [3d153]
fraction ligated: 0.569

TATCACTTGTCGTAAGCACTTTGATGGGTTG [3d2140]
fraction ligated: 0.677

TATCACTTTCGTAAGACCTTTGGATGGTTGA [3d1551]
fraction ligated: 0.0784

TACACTTGTCGTAAGACACTTTGGGGGTTGA [3d727]
fraction ligated: 0.0616

TATACTTGTCGTAAGACACTTTGGATGGGTT [3d947]
fraction ligated: 0.00683

TACACTTGTCGTAAGACACTTTGGATGGGTTGA [1d3]
fraction ligated: 0.748

ACACTTTCGTAAGACACTTTGGATGGGTTGA [3d28]
fraction ligated: 0.0846

TATCACTTGCGTAAGCACTTGGATGGGTTGA [3d1652]
fraction ligated: 0.792

TATACTTTGTAAGACACTTTGGATGGGTTGA [3d796]
fraction ligated: 0.74

TATCACTTGTCGTAAGACATTTGATGGGTTGA [2d270]
fraction ligated: 0.291

TATCACTTGTCGTAAGACACTGGATGGGTTGA [2d276]
fraction ligated: 0.776

TATCACTTGCGTAAGACACTTTGGATGGGTTGA [1d9]
fraction ligated: 0.85

TCACTTGTCGTAAGACACTTTGGTGGGTTGA [3d19]
fraction ligated: 0.0723

TATCTTGTCGTAAGACACTTTGGAGGGTTGA [3d754]
fraction ligated: 0.0612

TATCACTGTCGTAAACACTTTGGATGGGTTA [3d1406]
fraction ligated: 0.761

TTCACTTGCGTAGACACTTTGGATGGGTTGA [3d374]
fraction ligated: 0.736

TATCACTTGTCTAGACACTTGGATGGGTTGA [3d1829]
fraction ligated: 0.796

TATCACTTGTCGAAGACACTTTGGATGGGTT [3d1979]
fraction ligated: 0.763

TATCACTTGCGTAAGACACTTTATGGGTTGA [3d1688]
fraction ligated: 0.12

TATCACTTGTCGTAAGACACTTGGTGGTTGA [3d2245]
fraction ligated: 0.012

TTCACTTGTGTAAGACACTTTGGATGGGTTA [3d400]
fraction ligated: 0.132

TATCACTTGTCGTAAGACACTTTATGGGTTG [3d2259]
fraction ligated: 0.0149

TATACTTGTCGTAGACACTTGGATGGGTTGA [3d876]
fraction ligated: 0.61

TATCACTTTCGTAAGACACTTGGAGGGTTGA [3d1564]
fraction ligated: 0.085

ATCACTTGTCGTAAGACACTTTGGTGGGTTG [3d269]
fraction ligated: 0.0136

TATCATTGTCGTAAGACACTTTGGGGGTTGA [3d1282]
fraction ligated: 0.0386

TACACTTGTCGTAAGACACTTTGATGGGTTGA [2d63]
fraction ligated: 0.194

TATCCTTTCGTAGACACTTTGGATGGGTTGA [3d971]
fraction ligated: 0.766

TATCACTGTCGAGACACTTTGGATGGGTTGA [3d1372]
fraction ligated: 0.826

TATCACTTTCTAAACACTTTGGATGGGTTGA [3d1481]
fraction ligated: 0.79

TATACTTGTCGTAAGACCTTTGATGGGTTGA [3d912]
fraction ligated: 0.706

TATCACTGTCTAAGACACTTTGATGGGTTGA [3d1366]
fraction ligated: 0.77

TATACTTGTCGTAAGACACTTGGATGGTTGA [3d929]
fraction ligated: 0.0929

TATCACTGTCGAAGAACTTTGGATGGGTTGA [3d1375]
fraction ligated: 0.846

ATCACTTGTCGTAGACACTTTGGATGGGTTG [3d210]
fraction ligated: 0.782

Source: the supplement of paper PMC6755084
